Legend:
[1] = target: T1, HIV-1 reverse transcriptase (Human immunodeficiency virus 1, UniProt P03366;P03366 P03366:600-1159,P03366:600-1039); experiment: inhibition; Ki', RNA-dependent DNA polymerase activity, 10 nM RT, 40 nM substrate, 37 C; settings: tags: expressed in E. coli, purified per Davies et al. 1991; label: 5'-32P; internal loop (AA opposite CG) helix
Excerpt: Assay For Inhibition of RNA-Dependent DNA Polymerase Activity. A substrate for the RNA-dependent DNA polymerase activity of HIV-1 RT was assembled by annealing an 18 nucleotide, 5' end-labeled DNA primer to a 30 nucleotide RNA template with a complementary 3' end (see FIG. 10), and purifying the duplex on a 12% non-denaturing acrylamide gel. The primer sequence matched the 3' terminal 18 nucleotides of tRNA^{Lys,3}, responsible for priming minus-strand DNA synthesis of the HIV-1 genome, and the template sequence paralleled the HIV-1 genomic primer binding site and downstream 12 nucleotides. A dilution series of inhibitory ssDNA ligand (to give a final concentration of 0, 1, 3, 9, 27, or 81 nM) was denatured in HRT Buffer at 70° C. for 5 minutes and allowed to renature slowly at 20° C. The primer:template substrate was added to a final concentration of 40 nM, along with dNTP's at 400 μM. The 10 μl reaction was initiated with the addition of either HIV-1, AMV, or MMLV-RT (to give a final concentration of 10 nM), allowed to proceed for 5 minutes at 37° C., and terminated with one volume of formamide. Extension products were separated on an 8% denaturing acrylamide gel and quantitated with an Ambis radioanalytic imager. […]

[2] = target: T1, HIV-1 reverse transcriptase; experiment: filter; HRT buffer, 6 mM MgCl2, 37 C; settings: tags: expressed in E. coli, purified per Davies et al. 1991, label: 5'-32P
Description: Nitrocellulose Filter Binding Assays. Oligonucleotides bound to proteins can be effectively separated from the unbound species by filtration through nitrocellulose membrane filters (Yarus, M. and Berg, P. (1970) Anal. Biochem. 35:450–465; Lowary, P. T. and Uhlenbeck, O. C. (1987) Nucleic Acids Res. 15:10483–10493; Tuerk, C. and Gold, L. (1990) Science 249:505–510). The affinity of the random ssDNA library for HIV-1 RT was determined using a protein excess nitrocellulose filter binding assay as described in Carey, J. et al. (1983) Biochemistry 22:2601–2609. Selections were performed with a saturating ssDNA concentration to promote competition among DNA ligands for a limited number of available target binding sites.
(§1) Binding Curves Confirm High Affinity of Individual Ligands. Affinity values of each of the eight chosen isolates for HIV-1 RT were measured using the filter binding assay described in Example 1 (FIGS. 7A–C). […] Differences in maximum percent bound likely reflect competing ligand structures with lower affinity. […] Indicated dissociation constants were determined as in Example 1.

[3] = target: T1, HIV-1 reverse transcriptase; experiment: inhibition; Ki', RNA-dependent DNA polymerase activity; settings: tags: expressed in E. coli, purified per Davies et al. 1991
Excerpt: Assay For Inhibition of RNA-Dependent DNA Polymerase Activity. A substrate for the RNA-dependent DNA polymerase activity of HIV-1 RT was assembled by annealing an 18 nucleotide, 5' end-labeled DNA primer to a 30 nucleotide RNA template with a complementary 3' end (see FIG. 10), and purifying the duplex on a 12% non-denaturing acrylamide gel. The primer sequence matched the 3' terminal 18 nucleotides of tRNA^{Lys,3}, responsible for priming minus-strand DNA synthesis of the HIV-1 genome, and the template sequence paralleled the HIV-1 genomic primer binding site and downstream 12 nucleotides. A dilution series of inhibitory ssDNA ligand (to give a final concentration of 0, 1, 3, 9, 27, or 81 nM) was denatured in HRT Buffer at 70° C. for 5 minutes and allowed to renature slowly at 20° C. The primer:template substrate was added to a final concentration of 40 nM, along with dNTP's at 400 μM. The 10 μl reaction was initiated with the addition of either HIV-1, AMV, or MMLV-RT (to give a final concentration of 10 nM), allowed to proceed for 5 minutes at 37° C., and terminated with one volume of formamide. Extension products were separated on an 8% denaturing acrylamide gel and quantitated with an Ambis radioanalytic imager.
The ability of each of the 8 isolates to inhibit the RNA-dependent DNA polymerase activity of HIV-1 RT was assayed by measuring the decrease in extension product formation from a primer::template substrate as a function of inhibitor concentration (FIGS. 10A–10E). The substrate for the inhibition assay was a DNA:RNA heteroduplex consisting of an 18 nucleotide end-labeled DNA primer (SEQ ID NO: 74) identical in sequence to the 3' end of tRNA^{Lys,3} annealed to a 30 nucleotide RNA template (SEQ ID NO: 75) whose sequence matches the genomic primer binding site and the first twelve transcribed nucleotides. Extension reactions were performed as described in Example 1 in the presence of 0, 81, 27, 9, 3, and 1 nM inhibitor as indicated in FIG. 10.

[4] = target: T1, HIV-1 reverse transcriptase; experiment: filter; competition against RT1 gave Kc 3 nM (Example 5, FIG. 14); settings: tags: expressed in E. coli, purified per Davies et al. 1991; pseudoknot
Description: 15:10483–10493; Tuerk, C. and Gold, L. (1990) Science 249:505–510). The affinity of the random ssDNA library for HIV-1 RT was determined using a protein excess nitrocellulose filter binding assay as described in Carey, J. et al. (1983) Biochemistry 22:2601–2609. Selections were performed with a saturating ssDNA concentration to promote competition among DNA ligands for a limited number of available target binding sites.
as §1

[5] = target: T1, HIV-1 reverse transcriptase; experiment: filter; first 49 nt of RT1; settings: tags: expressed in E. coli, purified per Davies et al. 1991

B1: RT1 (ssDNA)
DNA: ATCCGCCTGATTAGCGATACTCAGAAGGATAAACTGTCCAGAACTTGGAATATATCACTTGAGCAAAATCACCTGCAGGGG
[1]
  Ki: 0.3 nM
[2]; internal loop (AA opposite CG) helix
  Kd: ~1 nM

## GGUCCGAAGUGCAACGGGAAAAUGCACU (ssRNA) [RNA pseudoknot (RNA pk)]
[3]; pseudoknot
  Ki: 4.7 nM
[4]
  Kd: 5 nM

B2: RT4 (ssDNA)
DNA: ATCCGCCTGATTAGCGATACTTTAGCAAAGTTGAAGCCGGACTAACAAGCTCTACGACTTGAGCAAAATCACCTGCAGGGG
[3]; label: 5'-32P, internal loop variant (AA opposite AG)
  Ki: 4.1 nM

B3: RT26 (ssDNA)
DNA: ATCCGCCTGATTAGCGATACTTACGTGAGCGTGCTGTCCCCTAAAGGTGATACGTCACTTGAGCAAAATCACCTGCAGGGG
[3]; label: 5'-32P, intramolecular primer:template junction with internal loop (AA opposite CG)
  Ki: 2.7 nM
[2]; intramolecular primer:template junction with internal loop (AA opposite CG)
  Kd: ~1 nM

B4: RT8 (ssDNA)
DNA: ATCCGCCTGATTAGCGATACTAGCCAGTCAAGTTAATGGGTGCCATGCAGAAGCAACTTGAGCAAAATCACCTGCAGGGG
[3]; label: 5'-32P, internal loop variant (CAA opposite TAG)
  Ki: 13 nM

## ATCCGCCTGAATAGCGATACTCAGAAGGATAAACTGTCCAGAACTTGGA (ssDNA) [RT1t49]
[5]
  Kd: 4 nM

B5: RT6 (ssDNA)
DNA: ATCCGCCTGATTAGCGATACTCAGGCGTTAGGGAAGGGCGTCGAAAGCAGGGTGGGACTTGAGCAAAATCACCTGCAGGGG
[3]; label: 5'-32P
  Ki: 30 nM
[2]
  Kd: 5 nM

B6: RT36 (ssDNA)
DNA: ATCCGCCTGATTAGCGATACTAAGCTCTTAGTTGATGCGCGGTCAAAATTTAAGCTACTTGAGCAAAATCACCTGCAGGGG
[3]; label: 5'-32P, internal loop variant (AA opposite A)
  Ki: 6.5 nM

B7: RT10 (ssDNA)
DNA: ATCCGCCTGATTAGCGATACTTATTTGCCCTTGCAGGCCGCAGGAGTGCTAGCAGTACTTGAGCAAAATCACCTGCAGGGG
[3]; label: 5'-32P, intramolecular primer:template junction
  Ki: 62 nM

Reference: US5786462, “High affinity ssDNA ligands of HIV-1 reverse transcriptase” (NeXstar Pharmaceuticals, Inc.)
